This experiment deals with CrtSPARTA (heterodimeric TIR-APAZ/short pAgo complex from Crenotalea thermophila) (Crenotalea thermophila). The experiment in a line: cryo-EM structure.

“CrtSPARTA (heterodimeric TIR-APAZ/short pAgo complex from Crenotalea thermophila)” registered a stoichiometry N (heterodimers in the assembly (octamer)) of 4 and a stoichiometry N (heterodimers in the assembly (tetramer)) of 2.
